US6586559B2, “Polyamide oligomers” (Inex Pharmaceuticals Corporation, priority 1997, dated 2003)

Experiment: Encapsulation of cationic peptide IB510 in liposomes (extrusion, BioGel column, LSC/HPLC)
Format: physicochemical
Settings: ATTA8-DSPE versus PEG-PE
Procedure: Lipid films (total of 100 mg of lipid) were prepared by dissolving appropriate quantities of individual lipids in 200 to 500 μL of chloroform, mixing the lipids, then removing the chloroform under high vacuum. Specifically, prepared lipid films were sphingomyelin/cholesterol/PEG-PE (50/45/5 molar ratios; prepared from 53.2 mg sphingomyelin, 26 mg cholesterol and 20 mg PEG-PE) and sphingomyelin/cholesterol/ATTA8-DSPE (50/45/5 molar ratios; prepared from 53.2 mg sphingomyelin, 26 mg cholesterol and 20 mg ATTA8-DSPE) and contained 1 μCi of 3H-cholesterylhexadecylether as a radiolabelled tracer. […] 5 μl were removed for phosphate assay to quantify the phospholipid and for liquid scintillation counting (LSC). […]
Aliquots of 200-400 μL of the large unilamellar vesicles containing IB510 were passed over a 20 cm×1 cm BioGel A-15 m (50-100 mesh) column pre-equilibrated in 150 mM NaCl and 20 mM Hepes (pH 7.5). […] The concentrations of liposomes and peptide were quantified by LSC and HPLC, respectively. Encapsulation efficiency was calculated from the post-column peptide/lipid ratio divided by the precolumn peptide/lipid ratio. […]

Substance	encapsulation efficiency (comparison in words)
N-(ω-azido-octa-(14′-amino-3′,6′,9′,12′-tetraoxatetradecanoyl))-1,2-distearoyl-sn-glycero-3-phosphoethanolamine [ATTA8-DSPE]	superior to PEG-PE
Octa-(14-amino-3,6,9,12-tetraoxatetradecanoic acid) [ATTA8]	superior to PEG
